This note sets out measurements from patent US20210206865A1 (Regeneron, published 2021).

What is called Kd is the equilibrium constant for the complex coming apart. By koff is commonly meant the rate constant with which the complex falls apart. By kon is commonly meant the rate constant with which the complex forms.

B1: mAb16711 (antibody, V domains shown)
VH: QVQLVESGGGVVQPGRSLRLSCAASGFTFSTYGIHWVRQAPGKGLEWVAVILHDGSSNYYAESVKGRFIISRDNSKNTLYLQMNSLRAEDTALYYCTKRYSEAAGPNWFDPWGQGTLVTVSS
VL: DIQMTQSPSSVSASVGDRVTITCRASRGISSWLAWYQQKPGKAPKLLIHAASSLQSGVPSRFSGSGSGTDFTLTISSLQPEDFATYYCQQAISFPFTFGPGTKVDIK
notes: Anti-BCMA monoclonal antibody; Captured by anti-human Fc in SPR
B2: mAb16747 (REGN4515) (antibody, V domains shown)
VH: QVQLVESGGGLVKPGGSLRLSCAASGFTFSDYYISWIRQAPGKGLEWVSYISSSGSSIKYADSVKGRFTISRDNAKNSLYLQMNSLRAEDTAVYYCAREGGNYGMDVWGQGTTVTVSS
VL: DIQMTQSPSSVSASVGDRVTITCRASQGINNWLVWYQQKPGKAPKLLIYAATSLQSGVPSRFSGSGSGTDFTLTISSLQPEDFATYYCQQANSFPPTFGQGTKLEIK
notes: as for B1
B3: mAb21581, parental bivalent anti-BCMA antibody (antibody, V domains shown)
VH: EVQLVESGGGLVQPGGSLRLSCAASGFTFSNFWMTWVRQAPGKGLEWVANMNQDGSEKYYVDSVKGRFTISRDNAKSSLYLQMNSLRAEDTAVYYCARDREYCISTSCYDDFDYWGQGTLVTVSS
VL: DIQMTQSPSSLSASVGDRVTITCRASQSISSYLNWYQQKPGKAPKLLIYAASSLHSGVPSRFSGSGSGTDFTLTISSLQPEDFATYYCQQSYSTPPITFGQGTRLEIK
B4: mAb16716 (antibody, V domains shown)
VH: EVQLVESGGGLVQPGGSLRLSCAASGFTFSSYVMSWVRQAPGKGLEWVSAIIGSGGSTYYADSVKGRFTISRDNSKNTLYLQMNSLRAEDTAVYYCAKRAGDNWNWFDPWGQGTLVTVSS
VL: B1 VL with V15L, R27Q, Q38R, H49Y, T69A, I92K, F94V
notes: as for B1
B5: mAb16732 (REGN4514) (antibody, V domains shown)
VH: EVQLVESGGGLVQPGRSLRLSCAASGFTFDDYAMHWVRQAPGKGLEWVSGISWNSGNMGYADSVKGRFTISRDNAKNSLFLQMHSLRAEDTAFYYCAKVRLTAFDFWGQGTLVTVSS
VL: DIQMTQSPSSLSASVGDRVTITCRTSQSIGNYLNWFQQKPGKAPKLLIYTASSLQNGVPSRFTGSGSGTDFTLTISSLQPEDFVIYYCQQSFSTPYTFGQGTKLEIK
notes: as for B1

Substitutions are numbered along the chain they refer to.

The target of the first experiment is T1, human BCMA on the surface of cell lines (NCI-H929, MM.1S, OPM-2, RPMI-8226, Daudi, Raji, MOLP-8, U266) (human, UniProt Q02223 1-184).
T1 sequence: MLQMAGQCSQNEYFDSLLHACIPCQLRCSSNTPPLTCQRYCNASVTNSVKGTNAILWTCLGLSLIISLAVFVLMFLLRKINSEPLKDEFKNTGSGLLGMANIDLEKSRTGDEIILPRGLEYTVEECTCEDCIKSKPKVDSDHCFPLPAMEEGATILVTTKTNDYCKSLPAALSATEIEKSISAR
In words: cell-based or functional assay.
Regarding B1, the “MFI fold change over cells incubated in media only, NCI-H929, overnight with 67 nM antibody” value worked out at 2.8 fold and the “MFI fold change over cells incubated in media only, NCI-H929, overnight with 667 nM antibody” value is 2.1 fold.
For B2, in that order: 1.8 fold and 2.1 fold.
B3: the “MFI fold change over cells incubated in media only, NCI-H929, overnight with 67 nM antibody” value was found to be 1.2 fold and the “MFI fold change over cells incubated in media only, NCI-H929, overnight with 667 nM antibody” value amounted to 1.4 fold.

The target of a further experiment is T1, human BCMA on the surface of cell lines …. In words: cell-based or functional assay. The source holds these as a separate data set.
B1: the “MFI fold change over cells incubated in media only, Molp8, overnight with 67 nM antibody” value turned out to be 3.5 fold and the “MFI fold change over cells incubated in media only, Molp8, overnight with 667 nM antibody” value amounted to 3 fold.
For B2, in that order: 2.2 fold and 0.6 fold.
In the same order, the values of B3 are 2.3 fold and 3.7 fold.

Another experiment shares this target. The experiment can be described thus: cell-based or functional assay. The source holds these as a separate data set.
Regarding B1, the “MFI fold change over cells incubated in media only, U266, overnight with 67 nM antibody” value came to 2.2 fold and the “MFI fold change over cells incubated in media only, U266, overnight with 667 nM antibody” value worked out at 2.2 fold.
As to B2, the “MFI fold change over cells incubated in media only, U266, overnight with 67 nM antibody” value was 1.5 fold and the “MFI fold change over cells incubated in media only, U266, overnight with 667 nM antibody” value was 1.7 fold.
For B3, in that order: 1.8 fold and 2.3 fold.

For a further experiment the target is unchanged. The experiment can be described thus: cell-based or functional assay. The source holds these as a separate data set.
Turning to B3, the “MFI fold change over cells incubated in media only, MM1S, overnight with 67 nM antibody” value is 7.3 fold and the “MFI fold change over cells incubated in media only, MM1S, overnight with 667 nM antibody” value amounted to 7 fold.

In another experiment the target is T2, human BCMA-MMH (extracellular domain of human BCMA with C-terminal myc-myc-hexahistidine tag) (human).
T2 construct: Monomeric antigen; also called hBCMA.mmh; hBCMA.mmH
T2 chain: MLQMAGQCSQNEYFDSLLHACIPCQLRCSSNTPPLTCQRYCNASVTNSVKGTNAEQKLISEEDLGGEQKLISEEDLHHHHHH
In words: SPR Biacore, 25 C, mAb captured via anti-hFc. As for the experimental part:
(§1) The CM5 Biacore sensor surface was derivatized by amine coupling with a monoclonal mouse anti-human Fc antibody (GE, #BR-1008-39) to capture purified anti-BCMA mAbs and anti-BCMA×anti-CD3 bispecific mAbs. All Biacore binding studies were performed in a buffer composed of 0.01M HEPES pH 7.4, 0.15M NaCl, 3 mM EDTA, 0.05% v/v Surfactant P20 (HBS-ET running buffer). […] Antigen samples were then injected over the anti-BCMA and anti-BCMA×anti-CD3 bispecific mAbs captured surfaces at a flow rate of 30 μL/minute. Antibody-reagent association was monitored for 5 minutes while dissociation in HBS-ET running buffer was monitored for 10 minutes. All of the binding kinetics experiments were performed at 25° C. Kinetic association (kₐ) and dissociation (kd) rate constants were determined by fitting the real-time sensorgrams to a 1:1 binding model using Scrubber 2.0c curve fitting software. Binding dissociation equilibrium constants (KD) and dissociative half-lives (t1/2) were calculated from the kinetic rate constants as: […]
On to B1, for which the “90 nM hBCMA.mmh Bind (RU)” value worked out at 22.2 RU, binding was characterised by a dissociation constant (Kd) of 1.73 nM, the koff was determined as 0.00347 s⁻¹ and the kon turned out to be 2.01e+06 M⁻¹ s⁻¹. This molecule displayed a t1/2 of 3.3 min.
In the same order, the values of B4 are 26.4 RU, 3.56 nM, 0.00299 s⁻¹, 841000 M⁻¹ s⁻¹ and 3.9 min.
In the same order, the values of B2 are 31.4 RU, 2.84 nM, 0.00247 s⁻¹, 869000 M⁻¹ s⁻¹ and 4.7 min.
In the same order, the values of B5 are 25.3 RU, 2.69 nM, 0.00285 s⁻¹, 1.06e+06 M⁻¹ s⁻¹ and 4.1 min.

The target in another experiment is T3, human BCMA-MFC (extracellular domain of human BCMA with C-terminal mFc tag) (human).
T3 construct: also called hBCMA.mFc
T3 chain: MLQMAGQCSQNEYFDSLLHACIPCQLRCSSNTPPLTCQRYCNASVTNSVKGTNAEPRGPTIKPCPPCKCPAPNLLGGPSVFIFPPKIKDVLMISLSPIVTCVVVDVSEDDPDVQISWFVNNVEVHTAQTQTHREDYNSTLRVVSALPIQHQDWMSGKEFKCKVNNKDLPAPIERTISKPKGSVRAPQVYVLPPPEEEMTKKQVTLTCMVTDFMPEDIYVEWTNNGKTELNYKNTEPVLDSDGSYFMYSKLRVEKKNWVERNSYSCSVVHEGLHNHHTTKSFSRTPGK
The experiment can be described thus: SPR Biacore, 25 C, mAb captured via anti-hFc. As for the experimental part:
as §1
(Surface plasmon resonance follows binding to a sensor surface in real time, without labels.)
With B1, the “30 nM hBCMA.mFc Bind (RU)” value came to 114 RU; the affinity, expressed as Kd, was 0.103 nM; the koff came to 0.00019 s⁻¹; the kon amounted to 1.85e+06 M⁻¹ s⁻¹. The molecule also had a t1/2 of 60.8 min.
B4: the “30 nM hBCMA.mFc Bind (RU)” value is 120 RU; the affinity, expressed as Kd, was 0.0968 nM; the koff was 8.35e-05 s⁻¹; the kon amounted to 862000 M⁻¹ s⁻¹. The t1/2 stood at 138 min.
For B2, in that order: 146 RU, 0.0633 nM, 8.95e-05 s⁻¹, 1.41e+06 M⁻¹ s⁻¹ and 129 min.
In the same order, the values of B5 are 124 RU, 0.0422 nM, 4.53e-05 s⁻¹, 1.07e+06 M⁻¹ s⁻¹ and 255 min.

The next experiment has as its target T4, monkey BCMA-MMH (monkey BCMA with C-terminal myc-myc-hexahistidine tag) (monkey).
T4 construct: Monomeric antigen; also called mfBCMA.mmh
The experiment can be described thus: SPR Biacore, 25 C, mAb captured via anti-hFc. Here is the method: as §1
Take B1: the “90 nM mfBCMA.mmh Bind (RU)” value is -0.5 RU.
As for B4, the “90 nM mfBCMA.mmh Bind (RU)” value amounted to 0.8 RU and the binding result is “no binding (tested: 90 nM)”.

In another experiment the target is T5, monkey BCMA-MFC (monkey BCMA with C-terminal mFc tag) (monkey).
T5 construct: also called mfBCMA.mFc
The experiment can be described thus: SPR Biacore, 25 C, mAb captured via anti-hFc. Here is the method:
as §1
For B1, the “30 nM mfBCMA.mFc Bind (RU)” value turned out to be 0.9 RU and the binding result is on record as “no binding (tested: 30 nM)”.
On to B2, for which the “30 nM mfBCMA.mFc Bind (RU)” value was 101 RU, binding was put at a Kd of 3.37 nM, the koff was 0.00716 s⁻¹ and the kon worked out at 2.13e+06 M⁻¹ s⁻¹. In addition, the t1/2 was 1.6 min.
On to B5, for which the “30 nM mfBCMA.mFc Bind (RU)” value worked out at 40.3 RU, binding was put at a Kd of 14.7 nM, the koff is 0.00724 s⁻¹ and the kon is 492000 M⁻¹ s⁻¹. The t1/2 stood at 1.6 min.

The target in another experiment is T6, mouse BCMA-MFC (BCMA with C-terminal mFc tag) (mouse).
T6 construct: Tested at a single concentration of 30 nM; also called mBCMA.mFc
T6 chain: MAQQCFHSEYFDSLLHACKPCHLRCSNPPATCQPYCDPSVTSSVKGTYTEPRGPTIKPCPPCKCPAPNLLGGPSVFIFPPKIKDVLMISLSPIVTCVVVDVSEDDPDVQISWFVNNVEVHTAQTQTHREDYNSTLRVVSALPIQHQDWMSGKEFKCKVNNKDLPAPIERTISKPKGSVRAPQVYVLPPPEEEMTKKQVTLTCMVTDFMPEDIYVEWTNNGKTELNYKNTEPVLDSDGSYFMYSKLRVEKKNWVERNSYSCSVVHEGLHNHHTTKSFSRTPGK
The experiment can be described thus: SPR Biacore, 25 C, mAb captured via anti-hFc. As for the experimental part:
as §1
With B1, the “30 nM mBCMA.mFc Bind (RU)” value amounted to 90 RU, binding was put at a Kd of 1.02 nM, the koff is 0.0011 s⁻¹ and the kon was found to be 1.07e+06 M⁻¹ s⁻¹. For the same molecule, the t1/2 is 10.5 min.
Consider B4, for which the “30 nM mBCMA.mFc Bind (RU)” value amounted to 33.4 RU, the Kd was found to be 18.8 nM, the off-rate constant (koff) is 0.00385 s⁻¹ and the kon was found to be 205000 M⁻¹ s⁻¹. This molecule also registered a t1/2 of 3 min.
For B2, in that order: 108 RU, 4.42 nM, 0.00418 s⁻¹, 947000 M⁻¹ s⁻¹ and 2.8 min.
For B5, in that order: 110 RU, 0.677 nM, 0.000269 s⁻¹, 397000 M⁻¹ s⁻¹ and 43 min.
